Experimental data as given in the supplement of paper PMC6757056.
± gives the standard deviation of the averaged measurements.

B1: library; a variant is named by its letters at N, in order (parent)
chain: GCUGUCACCGAGAAACUGUGAAGUAUAUCUUAAACCUGGGCACUUAAAAGAUAUAUGGAGUUAGUAGUGCAACCUGCUCGGUCUGAUGAGUCCNNNNNNGGACGAAACAGC

What was measured:
cyclic di-GMP [1] = variants of: B1; assay: FACS-Seq fitted mean relative fluorescence mCherry/BFP without ligand (log10 relative fluorescence); HEK293T; ligand: cyclic di-GMP (c-di-GMP-II aptamer); higher = higher reporter protein expression; details: ligand present: no
Summary of the method: (§1)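 The ribozyme switch sat in an mCherry reporter, delivered by lentivirus into HEK293T libraries along with an EF1α-BFP marker. Enriched cells were incubated 48 h with or without ligand, sorted into 6 bins by mCherry/BFP, and bin genomic DNA was PCR-amplified, barcoded and MiSeq-sequenced. Fluorescence equals the fitted normal mean of the bin counts after normalization. Those log10(mCherry/BFP) means were scaled to five spiked-in control ribozymes.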

cyclic di-GMP [2] = variants of: B1; assay: normalized RNA/DNA level without ligand (relative to sTRSVctl = 100) (log10 (% of sTRSVctl)); HEK293T; ligand: cyclic di-GMP (c-di-GMP-II aptamer); higher = less ribozyme self-cleavage, higher mRNA level; details: reporter: mCherry (pCS4076), ligand present: no
Summary of the method: (§2)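 Library plasmids carrying ribozyme switches linked to mCherry, or to eGFP in some ligand experiments, were transfected into HEK293T at 4 µg per 6-well well, with any ligand added 1 h earlier. Seventy-two hours on, total RNA was extracted with EDTA and reverse-transcribed, amplified, barcoded and sequenced. RNA level was RNA over DNA reads normalized to a spiked-in non-cleaving sequence or to the top sequences, then scaled and log-transformed. The top set was 25 sequences, the transform was ×100 and log10, and sequences needed ≥100 DNA reads.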

cyclic di-GMP [3] = variants of: B1; assay: FACS-Seq fitted mean relative fluorescence mCherry/BFP with ligand (log10 relative fluorescence); HEK293T; ligand: cyclic di-GMP (c-di-GMP-II aptamer); ligand concentration (+) FACS-Seq: 1 mM; higher = higher reporter protein expression; details: ligand present: yes
Summary of the method: as §1

cyclic di-GMP [4] = variants of: B1; assay: normalized RNA/DNA level with ligand (relative to sTRSVctl = 100) (log10 (% of sTRSVctl)); HEK293T; ligand: cyclic di-GMP (c-di-GMP-II aptamer); ligand concentration (+) RNA-Seq: 1 mM; higher = less ribozyme self-cleavage, higher mRNA level; details: reporter: mCherry (pCS4076), ligand present: yes
Summary of the method: as §2

Row | Variant | FACS-Seq fitted mean (log10) (cyclic di-GMP [1]) | normalized RNA/DNA level without ligand (log10) (cyclic di-GMP [2]) | FACS-Seq fitted mean (log10) (cyclic di-GMP [3]) | normalized RNA/DNA level with ligand (log10) (cyclic di-GMP [4])
1 | CAUCUC | -0.977 ± 0.064 | 1.74 ± 0.051 | -0.802 ± 0.028 | 1.86 ± 0.11
2 | UCAUAU |  | 1.54 ± 0.037 |  | 1.72 ± 0.13
3 | UAACAC |  | 1.68 ± 0.035 |  | 1.83 ± 0.13
4 | CACCAU |  | 1.593 ± 0.0031 |  | 1.75 ± 0.11
5 | AUGGCU |  | 1.75 ± 0.031 |  | 1.86 ± 0.15
6 | UCAAGG |  | 1.8 ± 0.067 |  | 1.89 ± 0.12
7 | UCAAGC |  | 1.63 ± 0.031 |  | 1.76 ± 0.1
8 | CACAUC |  | 1.682 ± 0.0036 |  | 1.74 ± 0.034
9 | GAGGGG |  | 1.77 ± 0.056 |  | 1.86 ± 0.1
10 | GCUCUA | -0.242 ± 0.011 | 1.64 ± 0.039 | 0.0781 ± 0.02 | 1.8 ± 0.025
11 | AACUCG |  | 1.66 ± 0.047 |  | 1.82 ± 0.085
12 | CAACGG |  | 1.671 ± 0.012 |  | 1.77 ± 0.061
13 | AGACUG |  | 1.749 ± 0.013 |  | 1.84 ± 0.071
14 | CUCUUA | -0.241 ± 0.082 | 1.46 ± 0.067 | -0.0535 ± 0.053 | 1.65 ± 0.11
15 | CAACAG |  | 1.6987 ± 0.0016 |  | 1.85 ± 0.13
16 | CAACAU | -0.377 ± 0.0095 | 1.43 ± 0.089 | -0.0626 ± 0.039 | 1.64 ± 0.13
17 | GCAUAU |  | 1.528 ± 0.014 |  | 1.72 ± 0.06
18 | CGGAUG |  | 1.64 ± 0.057 |  | 1.77 ± 0.17
19 | GUCAGU |  | 1.63 ± 0.022 |  | 1.77 ± 0.15
20 | CGCGUG |  | 1.62 ± 0.034 |  | 1.79 ± 0.12
21 | CCCCAA |  | 1.59 ± 0.018 |  | 1.76 ± 0.14
22 | CCGGCC |  | 1.77 ± 0.04 |  | 1.86 ± 0.15
23 | AAUUUA |  | 1.61 ± 0.031 |  | 1.81 ± 0.15
24 | GGUAUA |  | 1.5 ± 0.066 |  | 1.72 ± 0.025
25 | AAUUCC |  | 1.79 ± 0.028 |  | 1.88 ± 0.14
26 | CAUGCU |  | 1.72 ± 0.056 |  | 1.84 ± 0.097

Row | Variant | FACS-Seq fitted mean (log10) (cyclic di-GMP [1]) | normalized RNA/DNA level without ligand (log10) (cyclic di-GMP [2]) | FACS-Seq fitted mean (log10) (cyclic di-GMP [3]) | normalized RNA/DNA level with ligand (log10) (cyclic di-GMP [4])
27 | CGUAGA |  | 1.44 ± 0.016 |  | 1.64 ± 0.14
28 | CGGGUA | -0.076 ± 0.13 | 1.67 ± 0.023 | 0.207 ± 0.099 | 1.75 ± 0.081
29 | CGUACG |  | 1.777 ± 0.013 |  | 1.857 ± 0.017
30 | UGCAAA |  | 1.74 ± 0.0094 |  | 1.84 ± 0.1
31 | UGCAAG |  | 1.777 ± 0.0085 |  | 1.9 ± 0.088
32 | AGAAUU | 0.202 ± 0.13 | 1.65 ± 0.072 | 0.346 ± 0.074 | 1.8 ± 0.12
33 | AGAAUA |  | 1.43 ± 0.091 |  | 1.63 ± 0.098
34 | CUGACG |  | 1.8 ± 0.028 |  | 1.9 ± 0.17
35 | UGAUUG |  | 1.718 ± 0.017 |  | 1.88 ± 0.088
36 | CAUCCG |  | 1.82 ± 0.035 |  | 1.88 ± 0.09
37 | UGAAUU |  | 1.683 ± 0.0066 |  | 1.84 ± 0.13
38 | ACUUCA |  | 1.648 ± 0.014 |  | 1.83 ± 0.082
39 | GAUCUG |  | 1.708 ± 0.016 |  | 1.84 ± 0.07
40 | AGGAUA | -0.5971 ± 0.0057 | 1.34 ± 0.12 | -0.199 ± 0.011 | 1.49 ± 0.018
41 | UAUGAU | -0.525 ± 0.18 | 1.597 ± 0.0092 | -0.0494 ± 0.041 | 1.79 ± 0.12
42 | AUAUCC | -0.758 ± 0.046 | 1.73 ± 0.048 | -0.565 ± 0.012 | 1.9 ± 0.11
43 | AUAUCU |  | 1.73 ± 0.062 |  | 1.86 ± 0.13
44 | GACCAG |  | 1.82 ± 0.088 |  | 1.91 ± 0.13
45 | GAGUGU |  | 1.77 ± 0.049 |  | 1.89 ± 0.09
46 | UGGGCC |  | 1.94 ± 0.036 |  | 1.97 ± 0.081
47 | CAGAAG |  | 1.68 ± 0.039 |  | 1.86 ± 0.092
48 | CAGAAA | -0.664 ± 0.055 | 1.15 ± 0.12 | -0.562 ± 0.02 | 1.28 ± 0.14
49 | UAUCAG |  | 1.72 ± 0.028 |  | 1.84 ± 0.13
50 | GGGCAC |  | 1.78 ± 0.042 |  | 1.89 ± 0.074
51 | CCAGUU | 0.0604 ± 0.26 | 1.69 ± 0.04 | 0.36 ± 0.0063 | 1.87 ± 0.077
